Experimental findings from paper PMC3836952 are described below.

The target of one data set is Cys25 (UniProt position 150, GACGSCWAFSA). The data set is described as follows: kinetics. Conditions: 35 °C, constant ionic strength (four-component buffer; value not stated), 25 mM glycine, 25 mM acetic acid, 25 mM Mes, 75 mM Tris, 5 mM DTT, pH adjusted with HCl or NaOH.
For the next data set, the target named is His163 (UniProt position 288, GKQLNHGVLLV). The data set is described as follows: kinetics. Conditions: 35 °C, constant ionic strength (four-component buffer; value not stated), 25 mM glycine, 25 mM acetic acid, 25 mM Mes, 75 mM Tris, 5 mM DTT, pH adjusted with HCl or NaOH.
[1] abbreviates: Enzyme-substrate complex (saturating Z-FR-MCA) in the presence of 40 µM heparin (10 kDa bovine lung heparin).
The mark [2] stands for this setting: Enzyme-substrate complex (saturating Z-FR-MCA), no heparin (control).

Take “Cysteine protease B isoform CPB2.8 lacking the C-terminal extension (CPB2.8ΔCTE, rCPB2.8), cathepsin L-like (Leishmania mexicana; none (C-terminal extension deleted; residue range not stated))”: the pKa with Cys25 (setting [1]) is 4.6± 0.1; with Cys25 (setting [2]) it was 5.1±0.1; with His163 (setting [1]) it was 8.8±0.1; in the data set with His163 (setting [2]), 7.8±0.1.

Broadly, the pKa is the negative logarithm of the acid dissociation constant.
